Positions count from the first letter of the chain named.
B1: MS-66 (antibody)
VH: not shown
VL: DIVLTQSPHSLSVTPGESASISCKSSHSLIHGDRNNYLAWYVQKPGRSPQLLIYLASSRASGVPDRFSGSGSDKDFTLKISRVETEDVGTYYCMQGRESPWTFGQGTKVDIKRTVAAPSVFIFPPSDEQLKSGTASVVCLLNNFYPREAKVQWKVDNALQSGNSQESVTEQDSKDSTYSLSSTLTLSKADYEKHKVYACEVTHQGLSSPVTKSFNRGEC
B2: MS-67 (antibody)
VH: not shown
VL: B1 VL with I2F, H9L
B3: MS-86 (antibody)
VH: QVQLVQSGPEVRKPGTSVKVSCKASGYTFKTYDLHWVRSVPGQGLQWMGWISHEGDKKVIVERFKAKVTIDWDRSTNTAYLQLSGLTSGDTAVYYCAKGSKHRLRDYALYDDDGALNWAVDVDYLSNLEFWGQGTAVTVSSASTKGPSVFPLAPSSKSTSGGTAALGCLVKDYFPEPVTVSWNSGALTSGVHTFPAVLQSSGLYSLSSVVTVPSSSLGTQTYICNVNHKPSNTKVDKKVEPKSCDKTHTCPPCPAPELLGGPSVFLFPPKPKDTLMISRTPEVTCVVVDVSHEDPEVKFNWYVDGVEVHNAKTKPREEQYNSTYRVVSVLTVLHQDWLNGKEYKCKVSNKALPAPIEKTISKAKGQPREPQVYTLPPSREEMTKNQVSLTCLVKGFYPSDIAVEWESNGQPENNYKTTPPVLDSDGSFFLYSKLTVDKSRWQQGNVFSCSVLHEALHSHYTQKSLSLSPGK
VL: B1 VL with I2F
B4: MS-90 (antibody)
VH: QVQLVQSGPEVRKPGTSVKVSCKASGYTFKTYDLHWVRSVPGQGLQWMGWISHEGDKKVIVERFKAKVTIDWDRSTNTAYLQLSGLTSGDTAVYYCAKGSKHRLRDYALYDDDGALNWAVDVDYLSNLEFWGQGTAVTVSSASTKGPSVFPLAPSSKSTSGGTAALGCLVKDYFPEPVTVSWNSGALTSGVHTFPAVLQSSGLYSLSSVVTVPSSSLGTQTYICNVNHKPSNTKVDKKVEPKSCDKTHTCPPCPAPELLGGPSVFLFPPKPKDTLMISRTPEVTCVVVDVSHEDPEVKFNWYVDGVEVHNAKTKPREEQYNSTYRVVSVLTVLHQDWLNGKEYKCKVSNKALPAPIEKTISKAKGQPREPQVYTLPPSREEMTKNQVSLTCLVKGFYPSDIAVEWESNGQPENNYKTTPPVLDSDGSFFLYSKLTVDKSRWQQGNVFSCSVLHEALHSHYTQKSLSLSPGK
VL: B1 VL with I2F, H9L
B5: MS-66 (antibody)
VH: not shown
VL: B1 VL
B6: MS-67 (antibody)
VH: not shown
VL: B1 VL with I2F, H9L
B7: MS-83 (antibody, V domains shown)
VH: QVQLVQSGPEVRKPGTSVKVSCKAPGNTLKTYDLHWVRSVPGQGLQWMGWISHEGDKKVIVERFKAKVTIDWDRSTNTAYLQLSGLTSGDTAVYYCAKGSKHRLRDYALYDDEGALNWAVDVDYLSNLEFWGQGTAVTVSS
VL: DFVLTQSPHSLSVTPGESASISCKSSHSLIHGDRNNYLAWYVQKPGRSPQLLIYLASSRASGVPDRFSGSGSDKDFTLKISRVETEDVGTYYCMQGRESPWTFGQGTKVDIKR
B8: MS-87 (antibody, V domains shown)
VH: B7 VH with D71T, W72R, E113D
VL: B7 VL
B9: MS-84 (antibody, V domains shown)
VH: B7 VH with T87R, E113D
VL: B7 VL with H9L, S12P, S18P, R47Q, T85A, T90V
B10: MS-89 (antibody, V domains shown)
VH: B7 VH with N27Y, D71T, E113D
VL: B7 VL with H9L
B11: MS-91 (antibody, V domains shown)
VH: B7 VH with P25S, N27Y, E113D
VL: B7 VL with H9L, K74T
B12: MS-85 (antibody, V domains shown)
VH: B7 VH with E113D
VL: B7 VL with F2I, D73G, K74T
B13: MS-88 (antibody, V domains shown)
VH: B7 VH with P25S, N27Y, L29F, D71T, W72R, E113D
VL: B7 VL
B14: MS-92 (antibody, V domains shown)
VH: B7 VH with Q46E, W72R, T87R, E113D
VL: B7 VL with F2I

The binders below were run against HIV-1 pseudovirus AC10.0.29 (HIV-1) (assay: cell-based or functional assay).

Binder | IC50 (neutralization in TZM.bl cells) [µg/mL] | IC80 (neutralization in TZM.bl cells) [µg/mL]
B1 | 0.035 | 0.213
B2 | 0.031 | 0.186

What follows are binders tested against HIV-1 pseudovirus X1193_c1 (HIV-1) (assay: cell-based or functional assay).

Binder | IC50 (neutralization in TZM.bl cells) [µg/mL] | IC80 (neutralization in TZM.bl cells) [µg/mL]
B1 | 0.086 | 0.322
B2 | 0.075 | 0.303

The binders below were run against HIV-1 pseudovirus 6952.v1.c20 (HIV-1) (assay: cell-based or functional assay).

Binder | IC50 (neutralization in TZM.bl cells) [µg/mL] | IC80 (neutralization in TZM.bl cells) [µg/mL]
B1 | 0.284 | > 25
B2 | 0.28 | 7.89

What follows are binders tested against HIV-1 pseudovirus SC05.8C11.2344 (HIV-1) (assay: cell-based or functional assay).

Binder | IC50 (neutralization in TZM.bl cells) [µg/mL] | IC80 (neutralization in TZM.bl cells) [µg/mL]
B1 | 0.811 | 2.54
B2 | 0.631 | 2.14

The binders below were run against HIV-1 pseudovirus Ce1176_A3 (HIV-1) (assay: cell-based or functional assay).

Binder | IC50 (neutralization in TZM.bl cells) [µg/mL] | IC80 (neutralization in TZM.bl cells) [µg/mL]
B1 | 0.165 | 5.43
B2 | 0.105 | 1.9

Each binder was assayed against HIV-1 pseudovirus 263-8 (HIV-1) (assay: cell-based or functional assay).

Binder | IC50 (neutralization in TZM.bl cells) [µg/mL] | IC80 (neutralization in TZM.bl cells) [µg/mL]
B1 | 0.017 | 0.06
B2 | 0.011 | 0.037

These binders were tested against HIV-1 Env of pseudovirus RHPA4259.7 (HIV-1) (assay: cell-based or functional assay).

Binder | neutralization IC50 [µg/mL] | neutralization IC80 [µg/mL]
B3 | 0.305 | 1.1
B4 | 0.254 | 1.33
B5 | 0.238 | 0.745
B6 | 0.129 | 0.706
B7 | 0.15 | 0.663
B8 | 0.294 | 1.09
B9 | 0.175 | 0.773
B10 | 0.29 | 1.04
B11 | 0.267 | 1.82
B12 | 0.173 | 0.794
B13 | 0.504 | 2.51
B14 | 0.25 | 1.16

These binders were tested against HIV-1 Env of pseudovirus BB1012-11.TC21 (HIV-1) (assay: cell-based or functional assay).

Binder | neutralization IC50 [µg/mL] | neutralization IC80 [µg/mL]
B3 | 0.048 | 0.159
B4 | 0.044 | 0.204
B5 | 0.017 | 0.074
B6 | 0.017 | 0.071
B7 | 0.018 | 0.082
B8 | 0.023 | 0.102
B9 | 0.019 | 0.085
B10 | 0.032 | 0.143
B11 | 0.037 | 0.17
B12 | 0.028 | 0.124
B13 | 0.02 | 0.088
B14 | 0.029 | 0.127

Each binder was assayed against HIV-1 Env of pseudovirus SC422661.8 (HIV-1) (assay: cell-based or functional assay).

Binder | neutralization IC50 [µg/mL] | neutralization IC80 [µg/mL]
B3 | 1.2 | > 25
B4 | 1.48 | > 25
B5 | 0.902 | 5.82
B6 | 0.549 | 2.83
B7 | 0.267 | 2.11
B8 | 0.711 | 13.9
B9 | 0.192 | 1.37
B10 | 0.786 | > 25
B11 | 1.66 | 22.1
B12 | 0.54 | 7.04
B13 | 1.41 | > 25
B14 | 1.53 | > 25

The binders below were run against HIV-1 Env of pseudovirus Du172.17 (HIV-1) (assay: cell-based or functional assay).

Binder | neutralization IC50 [µg/mL] | neutralization IC80 [µg/mL]
B3 | 4.94 | 18.8
B4 | 4.07 | 15.6
B5 | 2.08 | 11.3
B6 | 1.76 | 9.31
B7 | 1.47 | 7.4
B8 | > 25 | > 25
B9 | 1.64 | 6.55
B10 | 11.9 | > 25
B11 | 3.85 | 23.9
B12 | 2.23 | 9.53
B13 | > 25 | > 25
B14 | 6.85 | > 25

The binders below were run against HIV-1 Env of pseudovirus 0260.v5.c36 (HIV-1) (assay: cell-based or functional assay).

Binder | neutralization IC50 [µg/mL] | neutralization IC80 [µg/mL]
B3 | 0.036 | 0.191
B4 | 0.03 | 0.168
B5 | 0.024 | 0.092
B6 | 0.023 | 0.088
B7 | 0.023 | 0.087
B8 | 0.114 | 1.01
B9 | 0.016 | 0.062
B10 | 0.036 | 0.197
B11 | 0.046 | 0.171
B12 | 0.019 | 0.059
B13 | 0.178 | 1.51
B14 | 0.044 | 0.35

The binders below were run against HIV-1 Env of pseudovirus CNE52 (HIV-1) (assay: cell-based or functional assay).

Binder | neutralization IC50 [µg/mL] | neutralization IC80 [µg/mL]
B3 | 1.46 | 13.3
B4 | 1.05 | 8.56
B5 | 0.408 | 3.74
B6 | 0.212 | 1.81
B7 | 0.135 | 1.04
B8 | 2.69 | > 25
B9 | 0.092 | 0.83
B10 | 2.34 | 23.8
B11 | 1.41 | 10.6
B12 | 0.341 | 4.71
B13 | 5.86 | > 25
B14 | 3.92 | > 25

From patent publication US20220025021A1 (BETH ISRAEL DEACONESS MEDICAL CENTER, published 2022)
